Here are results for three molecules from US20230242673A1 (published 2023).

For assay [1], the target named is T1, original PCSK9 (PCSK9 (human) recombinant protein, Abnova Cat No: H00255738-P01) (UniProt Q8NBP7 31-692). Put plainly: ELISA; 2nd experiment. For orientation: ELISA stands for enzyme-linked immunosorbent assay.
The target in assay [2] is T1, original PCSK9 (PCSK9 (human) …). Put plainly: ELISA; 1st experiment.
For assay [3] the target is unchanged. Put plainly: ELISA; mean of two experiments, ±0.000.
Assay [4] has the same target. Put plainly: ELISA; mean of two experiments, ±0.014.
The target is the same in assay [5]. Put plainly: ELISA; mean of two experiments, ±0.028.

Numbering of substitutions follows the chain as printed.

T1 sequence (Q8NBP7 other isoform, or with tags, fused parts or gaps): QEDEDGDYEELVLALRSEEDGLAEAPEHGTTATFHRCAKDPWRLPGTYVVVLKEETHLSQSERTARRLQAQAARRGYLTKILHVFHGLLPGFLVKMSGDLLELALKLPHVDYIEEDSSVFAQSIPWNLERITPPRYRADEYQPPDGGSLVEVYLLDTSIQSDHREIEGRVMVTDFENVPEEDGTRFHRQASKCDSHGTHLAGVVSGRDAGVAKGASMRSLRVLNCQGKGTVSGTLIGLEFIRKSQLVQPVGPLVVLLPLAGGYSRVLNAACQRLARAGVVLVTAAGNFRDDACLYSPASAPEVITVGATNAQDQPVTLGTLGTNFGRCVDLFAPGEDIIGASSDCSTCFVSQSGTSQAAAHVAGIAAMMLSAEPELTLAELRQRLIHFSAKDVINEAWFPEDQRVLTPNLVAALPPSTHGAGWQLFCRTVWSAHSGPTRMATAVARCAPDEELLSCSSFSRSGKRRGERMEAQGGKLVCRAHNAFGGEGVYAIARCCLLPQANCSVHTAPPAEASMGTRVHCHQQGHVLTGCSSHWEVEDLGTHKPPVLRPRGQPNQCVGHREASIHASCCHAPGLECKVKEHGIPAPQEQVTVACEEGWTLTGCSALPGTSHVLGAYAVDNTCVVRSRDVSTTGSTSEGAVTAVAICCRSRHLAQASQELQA

B1: hz7D1.11 IgG (antibody, V domains shown)
VH: QVQLVQSGAEVKKPGASVKVSCKASGFNIKDYYMHWVRQAPGQGLEWIGYIDPENGDTEYAPKFQGRATMTADTSISTAYMELSRLRSDDTAVYYCRSSPFTYWGQGTLVTVSS
VL: DVVMTQSPLSLPVTLGQPASISCKSSQSLLDSDGKTYLNWLQQRPGQSPRRLIYLVSKLDSGVPDRFSGSGSGTDFTLKISRVEAEDVGVYYCWQGTHFPQTFGGGTKVEIKR
The term EC50 denotes the midpoint of the concentration-response curve. For the molecule B1, the EC50 in assay [1], in assay [2] and in assay [3] was 0.13 µg/mL each time.

B2: hz7D1.22 IgG (antibody, V domains shown)
VH: B1 VH with F27Y, N28T, I29F, I48M, A68V
VL: B1 VL with L41F
Regarding B2, the EC50 in assay [4] amounted to 0.18 µg/mL; in assay [1], 0.17 µg/mL; in assay [2], 0.19 µg/mL.

B3: ch7D1 IgG (antibody, V domains shown)
VH: EVKLVESGAELVRSGASVKLSCTASGFNIKDYYMHWVKQRPEQGLEWIGYIDPENGDTEYAPKFQGKATMTADTSSNTAYLQLSSLTSEDTAVYYCRSSPFTYWGQGTLVTVSA
VL: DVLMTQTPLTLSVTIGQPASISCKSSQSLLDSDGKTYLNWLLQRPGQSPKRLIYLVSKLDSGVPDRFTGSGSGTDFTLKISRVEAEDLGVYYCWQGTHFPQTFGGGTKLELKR
B3: the values for the EC50 in assay [5], in assay [1] and in assay [2] were 0.38 µg/mL, 0.4 µg/mL and 0.36 µg/mL, respectively.
